Assay results as given in patent US20250296960A1, “PEPTIDE COMPOSITIONS AND METHODS OF USE THEREOF” (priority 2022, published 2025).
Numbered stars: 1 amine (or outer) side, 2 acyl side, 3 side chain; on linkers, the order of the positions; unused ones are H or OH. Square brackets hold non-standard residues; d marks the D form. Side chains are listed from the residue outwards. Ends that are not written are not given here. Peptide text beside a SMILES is read from it. * marks the point of attachment. C18 = C18 fatty acid (C16-C22 fatty acids conjugated via γGlu/8-amino-3,6-dioxaoctanoic acid spacers); X1 = O=C(O)CCCCCCCCCCCCCCCCC(=O)N[C@@H](CCC(=O)NCCOCCOCC(=O)NCCOCCOCC(=O)NCCN1C(=O)CC(*)C1=O)C(=O)O; methoxinine = methoxinine (m*), COCC[C@H](N[*:1])C(=O)[*:2]; Biotin = O=C1N[C@H]2[C@H](CS[C@H]2CCCCC(=O)*)N1; γGlu = O=C(O)[C@H](CCC(=O)[*:2])N[*:1]; AEEA = NCCOCCOCC(=O)O; Aib = CC(C)(N)C(=O)O

Key:
[1] = Body weight loss in normal C57BL/6 mice, subcutaneous dosing; assay type: in vivo; details: for Weight loss (%): normal mice
[2] = In vivo efficacy in mAMLN (NASH) mice, 2 weeks; details: for blood glucose, in words / body weight, in words: 20 nmol/kg s.c. Q2D, 2 weeks; for hepatic triglyceride content, in words / liver weight, in words / mRNA levels of TGF-β1 (inflammation marker) and ACTA2 (fibrosis marker), in words: end of treatment
human GLP-1R = biological target: T1, human GLP-1R (Homo sapiens, UniProt P43220); assay: cAMP assay (HitHunter cAMP) in GLP-1R-expressing CHO-K1 cells (GLP-1R+ cells); assay type: cell-based
T1 construct: host or cells: CHO-K1
T1 sequence (P43220 24-463): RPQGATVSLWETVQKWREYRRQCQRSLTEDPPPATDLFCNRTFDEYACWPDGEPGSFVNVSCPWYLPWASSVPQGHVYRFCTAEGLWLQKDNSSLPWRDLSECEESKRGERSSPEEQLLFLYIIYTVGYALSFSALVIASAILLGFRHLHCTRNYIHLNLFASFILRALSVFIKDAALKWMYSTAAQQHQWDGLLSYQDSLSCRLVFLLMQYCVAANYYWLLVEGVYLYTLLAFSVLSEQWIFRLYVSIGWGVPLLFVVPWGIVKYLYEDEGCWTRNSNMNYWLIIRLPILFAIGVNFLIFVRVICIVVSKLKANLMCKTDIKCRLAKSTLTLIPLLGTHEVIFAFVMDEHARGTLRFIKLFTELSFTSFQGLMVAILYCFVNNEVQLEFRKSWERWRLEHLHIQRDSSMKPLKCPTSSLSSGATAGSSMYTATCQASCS
Summary of the method: (§1)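 CHO-K1 cells expressing each receptor were plated overnight, then treated with peptide in cAMP assay buffer for 30 min at 37 °C. cAMP was detected by antibody plus detection solution (1 h) and Solution A (3 h), both at room temperature in the dark. Luminescence was the read-out.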

human GCGR = biological target: T2, human GCGR (Homo sapiens, UniProt P47871); assay: cAMP assay (HitHunter cAMP) in GCGR-expressing CHO-K1 cells (GCGR+ cells); assay type: cell-based
T2 construct: host or cells: CHO-K1
T2 sequence (P47871 26-477): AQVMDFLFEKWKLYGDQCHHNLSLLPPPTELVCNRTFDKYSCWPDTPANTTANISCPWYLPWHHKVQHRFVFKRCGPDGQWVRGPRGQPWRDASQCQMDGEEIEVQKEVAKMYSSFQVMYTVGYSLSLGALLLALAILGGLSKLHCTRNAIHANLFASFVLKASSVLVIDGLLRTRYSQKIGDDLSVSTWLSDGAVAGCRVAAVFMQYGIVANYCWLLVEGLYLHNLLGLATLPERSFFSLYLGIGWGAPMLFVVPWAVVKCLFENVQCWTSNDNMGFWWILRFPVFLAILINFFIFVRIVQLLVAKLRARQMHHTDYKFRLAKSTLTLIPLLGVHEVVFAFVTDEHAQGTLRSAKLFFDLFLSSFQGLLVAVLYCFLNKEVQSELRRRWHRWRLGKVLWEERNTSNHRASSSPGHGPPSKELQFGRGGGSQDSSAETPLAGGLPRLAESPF
Summary of the method: as §1

human GIPR = biological target: T3, human GIPR (Homo sapiens, UniProt P48546); assay: cAMP assay (HitHunter cAMP) in GIPR-expressing CHO-K1 cells (GIPR+ cells); assay type: cell-based
T3 construct: host or cells: CHO-K1
T3 sequence (P48546 22-466): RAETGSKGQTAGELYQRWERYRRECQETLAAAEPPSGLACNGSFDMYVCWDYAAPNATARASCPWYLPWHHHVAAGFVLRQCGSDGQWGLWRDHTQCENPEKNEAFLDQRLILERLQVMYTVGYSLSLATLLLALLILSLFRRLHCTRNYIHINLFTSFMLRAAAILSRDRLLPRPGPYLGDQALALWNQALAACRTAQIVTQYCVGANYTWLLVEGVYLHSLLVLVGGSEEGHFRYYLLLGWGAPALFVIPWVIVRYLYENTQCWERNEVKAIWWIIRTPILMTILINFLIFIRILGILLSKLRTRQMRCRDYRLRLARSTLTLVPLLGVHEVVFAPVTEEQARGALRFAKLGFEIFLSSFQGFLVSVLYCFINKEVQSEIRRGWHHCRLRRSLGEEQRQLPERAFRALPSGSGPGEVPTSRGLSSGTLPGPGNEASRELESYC
Summary of the method: as §1

[3] = biological target: human GLP-1 receptor (GLP-1R), expressed on CHO-K1 cells (human, UniProt P43220 24-463); assay: cell-based or functional assay
[4] = biological target: human glucagon receptor (GCGR), expressed on CHO-K1 cells (human, UniProt P47871 26-477); assay: cell-based or functional assay
Chain of human glucagon receptor (GCGR), expressed on CHO-K1 cells (P47871 26-477): as the sequence (P47871 26-477) above

[5] = biological target: T4, human glucose-dependent insulinotropic polypeptide receptor (GIPR), expressed on CHO-K1 cells (human, UniProt P48546 22-466); assay: cell-based or functional assay
T4 sequence (looked up): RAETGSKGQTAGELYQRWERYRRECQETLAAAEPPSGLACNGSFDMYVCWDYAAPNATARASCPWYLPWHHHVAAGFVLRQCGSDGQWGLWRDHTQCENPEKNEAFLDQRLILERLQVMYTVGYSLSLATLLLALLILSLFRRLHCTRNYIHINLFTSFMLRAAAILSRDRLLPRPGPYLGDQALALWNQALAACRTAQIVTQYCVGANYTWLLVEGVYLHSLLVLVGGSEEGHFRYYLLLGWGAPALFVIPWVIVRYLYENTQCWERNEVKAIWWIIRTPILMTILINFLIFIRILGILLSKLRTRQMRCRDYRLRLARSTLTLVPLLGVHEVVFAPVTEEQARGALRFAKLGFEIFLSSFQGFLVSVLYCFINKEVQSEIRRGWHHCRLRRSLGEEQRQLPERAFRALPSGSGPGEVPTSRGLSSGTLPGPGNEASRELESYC

[6] = Table 19, normalised to activity at GLP-1R
[7] = Table 24, ratio of EC50 of native ligand over peptide

## CC[C@H](C)[C@H](NC(=O)[C@H](CC(C)C)NC(=O)[C@H](Cc1c[nH]c2ccccc12)NC(=O)[C@H](CCC(N)=O)NC(=O)[C@@H](NC(=O)[C@H](Cc1ccccc1)NC(=O)[C@H](CC(=O)O)NC(=O)[C@H](CCCNC(=N)N)NC(=O)[C@H](C)NC(=O)[C@H](CCSC)NC(=O)[C@H](CCSC)NC(=O)[C@H](Cc1ccc(O)cc1)NC(=O)[C@H](CC(=O)O)NC(=O)[C@H](CC(C)C)NC(=O)[C@H](Cc1ccc(O)cc1)NC(=O)[C@H](CCCCN)NC(=O)[C@H](CO)NC(=O)[C@H](Cc1ccc(O)cc1)NC(=O)[C@H](CC(=O)O)NC(=O)[C@H](CO)NC(=O)[C@@H](NC(=O)[C@H](Cc1ccccc1)NC(=O)[C@@H](NC(=O)CNC(=O)[C@H](CCC(N)=O)NC(=O)C(C)(C)NC(=O)[C@@H](N)Cc1ccc(O)cc1)[C@@H](C)O)[C@@H](C)O)C(C)C)C(=O)N[C@@H](CCC(=O)O)C(=O)NCC(=O)NCC(=O)N1CCC[C@H]1C(=O)N[C@@H](CO)C(=O)N[C@@H](CO)C(=O)NCC(=O)N[C@@H](C)C(=O)N1CCC[C@H]1C(=O)N1CCC[C@H]1C(=O)N1CCC[C@H]1C(=O)N[C@@H](CO)C(=O)N[C@@H](CSC1CC(=O)N(CCNC(=O)COCCOCCNC(=O)COCCOCCNC(=O)CC[C@H](NC(=O)CCCCCCCCCCCCCCCCC(=O)O)C(=O)O)C1=O)C(N)=O (some centres unmarked) [5-1A] (H-Y[Aib]QGTFTSDYSKYLDYMMARDFVQWLIEGGPSSGAPPPSC(X1)-NH2; N-terminus assumed)
[1]; Example 5, 20 nmol/kg s.c. QD, 4 days
  body weight loss effect, in words: Superior body weight loss effects
[1]; 10 nmol/kg QD, after 48 or 72 hours
  Weight loss (%): 20.0 ± 2.1%
[1]; 20 nmol/kg QD, after 48 or 72 hours
  Weight loss (%): 18.9 ± 2.0%
[2]
  blood glucose, in words: reduce blood glucose
  body weight, in words: reduce body weight
  hepatic triglyceride content, in words: reduce hepatic triglyceride content
  liver weight, in words: reduce liver weight
  mRNA levels of TGF-β1 (inflammation marker) and ACTA2 (fibrosis marker), in words: reduce both TGF-β1 and ACTA2
Human GLP-1R; Table 18
  Activity relative to STD peptide (%), GLP-1R: 187%
Human GLP-1R; [6]
  Activity relative to GLP-1 (%), GLP-1R: 100%
Human GLP-1R; [7]
  Relative % to native ligand, GLP-1R: 187%
Human GLP-1R; Table 25
  Ratio vs. GLP-1R, GLP-1R: 100
Human GLP-1R; Table 26
  Relative % to non-lipidated peptide, GLP-1R: 159%
Human GCGR; Table 18
  Activity relative to STD peptide (%), GCGR: 24%
Human GCGR; [6]
  Activity relative to GLP-1 (%), GCGR: 13%
Human GCGR; [7]
  Relative % to native ligand, GCGR: 24%
Human GCGR; Table 25
  Ratio vs. GLP-1R, GCGR: 13
Human GCGR; Table 26
  Relative % to non-lipidated peptide, GCGR: 0%
Human GIPR; Table 18
  Activity relative to STD peptide (%), GIPR: 1%
Human GIPR; [6]
  Activity relative to GLP-1 (%), GIPR: 1%
Human GIPR; [7]
  Relative % to native ligand, GIPR: 1%
Human GIPR; Table 25
  Ratio vs. GLP-1R, GIPR: 1
Human GIPR; Table 26
  Relative % to non-lipidated peptide, GIPR: 11%

## YAibQGT FTSDY SK*YLD YMMQRDFVQWLIEGGPSSGAPPPS (Y[Aib]QGTFTSDYSK([AEEA-AEEA-γGlu-C18])YLDYMMQRDFVQWLIEGGPSSGAPPPS-NH2) [5-2D, K* = lysine lipidated with 2OEG-γGlu-C18]
[1]; 20 nmol/kg QD, Weight loss at 48 hr
  Weight loss (%): 16.6 ± 0.9%
[2]
  blood glucose, in words: reduce blood glucose
  body weight, in words: reduce body weight
  hepatic triglyceride content, in words: reduce hepatic triglyceride content
  liver weight, in words: reduce liver weight
  mRNA levels of TGF-β1 (inflammation marker) and ACTA2 (fibrosis marker), in words: reduce both TGF-β1 and ACTA2

B1: SEQ ID NO. 88 (peptide)
peptide: Y[Aib]QGTFTSDYSK([AEEA-AEEA-γGlu-C18])LLDYMMQKDFVQWLLEGGPSSGAPPPS-NH2
modifications: not fully specified (residue 20); printed as YAibQGT FTSDY SK*LLD YMMQB* DFVQW LLEGG PSSGA PPPS
[3]
  Ratio vs. GLP-1R: 100
  Relative % to native ligand: 16%
[4]
  Ratio vs. GLP-1R: 120
  Relative % to native ligand: 20%
[5]
  Ratio vs. GLP-1R: 432
  Relative % to native ligand: 71%

## Y[Aib]QGTFTSDYSK([AEEA-AEEA-γGlu-C18])LLDQQAQRDFVQWLLEGGPSSGAPPPS-NH2 [SEQ ID NO. 95]
[3]
  Ratio vs. GLP-1R: 100
  Relative % to native ligand: 1630%
[4]
  Ratio vs. GLP-1R: 1
  Relative % to native ligand: 14%
[5]
  Ratio vs. GLP-1R: 19
  Relative % to native ligand: 316%

## Y[Aib]QGTFTSDYSK([AEEA-AEEA-γGlu-C18])LLDYMMQ[Aib]DFVQWLLEGGPSSGAPPPS-NH2 [SEQ ID NO. 84]
[3]
  Ratio vs. GLP-1R: 100
  Relative % to native ligand: 71%
[4]
  Ratio vs. GLP-1R: 28
  Relative % to native ligand: 20%
[5]
  Ratio vs. GLP-1R: 470
  Relative % to native ligand: 335%

B2: SEQ ID NO. 86 (peptide)
peptide: Y[Aib]QGTFTSDYSK([AEEA-AEEA-γGlu-C18])LLDKMMQRDFVQWLLEGGPSSGAPPPS-NH2
modifications: not fully specified (residue 16); printed as YAibQGT FTSDY SK*LLD B*MMQR DFVQW LLEGG PSSGA PPPS
[3]
  Ratio vs. GLP-1R: 100
  Relative % to native ligand: 90%
[4]
  Ratio vs. GLP-1R: 157
  Relative % to native ligand: 142%
[5]
  Ratio vs. GLP-1R: 639
  Relative % to native ligand: 575%

B3: SEQ ID NO. 89 (peptide)
peptide: Y[Aib]QGTFTSDYSK([AEEA-AEEA-γGlu-C18])LLDYMMQRDFVKWLLEGGPSSGAPPPS-NH2
modifications: not fully specified (residue 24); printed as YAibQGT FTSDY SK*LLD YMMQR DFVB*W LLEGG PSSGA PPPS
[3]
  Ratio vs. GLP-1R: 100
  Relative % to native ligand: 38%
[4]
  Ratio vs. GLP-1R: 117
  Relative % to native ligand: 45%
[5]
  Ratio vs. GLP-1R: 399
  Relative % to native ligand: 154%

## Y[Aib]QGTFTSDYSK([AEEA-AEEA-γGlu-C18])LLDYMMQ[Aib]DFVQYLLEGGPSSGAPPPS-NH2 [SEQ ID NO. 85]
[3]
  Ratio vs. GLP-1R: 100
  Relative % to native ligand: 12%
[4]
  Ratio vs. GLP-1R: 305
  Relative % to native ligand: 38%
[5]
  Ratio vs. GLP-1R: 1150
  Relative % to native ligand: 143%

## Y[Aib]QGTFTSDYSK([AEEA-AEEA-γGlu-C18])LLDY[methoxinine][methoxinine]QRDFVQWLLEGGPSSGAPPPS-NH2 [SEQ ID NO. 96]
[3]
  Ratio vs. GLP-1R: 100
  Relative % to native ligand: 181%
[4]
  Ratio vs. GLP-1R: 10
  Relative % to native ligand: 17%
[5]
  Ratio vs. GLP-1R: 56
  Relative % to native ligand: 102%

## Y[Aib]QGTFTSDYSK([AEEA-AEEA-γGlu-C18])LLDYMMQRDFVQWLLEGGPSSGAPPPSK(Biotin)-NH2 [SEQ ID NO. 90]
[3]
  Ratio vs. GLP-1R: 100
  Relative % to native ligand: 50%
[4]
  Ratio vs. GLP-1R: 39
  Relative % to native ligand: 19%
[5]
  Ratio vs. GLP-1R: 311
  Relative % to native ligand: 154%

## Y[Aib]QGTFTSDYSK([AEEA-AEEA-γGlu-C18])LLDYMMQ[Aib]DFVQYLLEGGPSSGAPPPSK-NH2 (not fully specified (residue 40)) [SEQ ID NO. 92]
[3]
  Ratio vs. GLP-1R: 100
  Relative % to native ligand: 8%
[4]
  Ratio vs. GLP-1R: 243
  Relative % to native ligand: 19%
[5]
  Ratio vs. GLP-1R: 1530
  Relative % to native ligand: 120%
